# Source: US20260209347A1 (BIORAY PHARMACEUTICAL, published 2026)
# Legend:
# [1] = molecular target: T1, human NKG2A/CD94 on cells (CHOK1-hNKG2A/CD94) (human, UniProt P26715 1-233; Q13241 1-179); test: cell-based or functional assay
# [2] = molecular target: T1, human NKG2A/CD94 on cells …; test: FACS on human NKG2A overexpressing cell line
# Description: Human NKG2A overexpressing cells (CHOK1-hNKG2A/CD94), cyno NKG2A overexpressing cells (CHOK1-cynoNKG2A/CD94), and human NKG2C overexpressing cells (CHOK1-hNKG2C/CD94) were digested with TrypLE (purchased from Gibco). Cells were collected by centrifugation, then resuspended to 2E6/mL with FACS buffer (PBS+2% FBS). The cells were added to a 96-well cell plate at 100 μL per well, and the supernatant was discarded after centrifugation. The antibody was gradiently diluted with FACS buffer (initial concentration of 200 nM, 5-fold dilution, including point 0, a total of 10 concentration points), added to the cells at 100 μL/well, mixed, and incubated at 4° C. for 1 hour. The incubated cells were centrifuged at 300 g for 5 min and washed twice with FACS buffer. Secondary antibody, anti-human IgG fluorescent secondary antibody 488 (purchased from Thermofisher A-11013), was added, incubated at 4° C. for one hour, then the cells were washed twice with FACS buffer, resuspended in PBS and analyzed by FACS instrument.
# The binding activity of humanized antibodies to human NKG2A overexpressing cell line was detected by FACS (refer to Example 4 for FACS). The maximum MFIs of cAb-43 and its humanized mutant antibodies to human NKG2A overexpressing cell line were greater than that of the Z270 control antibody.
# T1 sequence (P26715 whole entry, chain 1 of 2): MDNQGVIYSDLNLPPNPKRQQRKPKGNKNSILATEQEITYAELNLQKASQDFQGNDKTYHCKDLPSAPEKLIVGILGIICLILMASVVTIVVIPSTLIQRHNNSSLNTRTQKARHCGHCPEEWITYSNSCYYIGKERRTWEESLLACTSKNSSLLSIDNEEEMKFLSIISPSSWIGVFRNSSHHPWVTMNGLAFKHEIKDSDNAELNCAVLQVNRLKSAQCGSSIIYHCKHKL
# T1 sequence (Q13241 whole entry, chain 2 of 2): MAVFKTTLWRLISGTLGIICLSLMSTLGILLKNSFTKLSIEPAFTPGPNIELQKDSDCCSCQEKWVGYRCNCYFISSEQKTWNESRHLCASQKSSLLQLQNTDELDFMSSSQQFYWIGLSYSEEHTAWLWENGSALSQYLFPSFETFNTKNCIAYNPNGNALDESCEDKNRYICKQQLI
Maximum MFI [2] [MFI],Binder,"IC50 (nM), killing of LCL721.221 target cells by NK92 cells [1] [nM]"
18800,"hu-52VH-13/VL-11 (antibody, human IgG4 S228P, kappa, V domains shown, full-length humanized antibody; also called hu-52 humanized antibody) VH: QVQLVQSGAEVKKPGASVKVSCKASGFNIQNTYLHWVRQAPGQGLEWMGRIDPANDNIKYVPKFQGRVTMTADTSTNTAYMELSSLRSEDTAVYYCTRHGLFYEGWFAYWGQGTLVTVSS VL: DIQLTQSPSSLSASVGDRVTITCSVSSSISSSNLHWYQQKPGKAPKPLIYGTSNLASGVPSRFSGSGSGTDYTLTISSLQPEDAATYYCQQWSSYPYTFGQGTKLEIKR",0.19
18800,"hu-52VH-13/VL-31 (antibody, human IgG4 S228P, kappa, V domains shown, full-length humanized antibody; also called hu-52 humanized antibody) VH: QVQLVQSGAEVKKPGASVKVSCKASGFNIQNTYLHWVRQAPGQGLEWMGRIDPANDNIKYVPKFQGRVTMTADTSTNTAYMELSSLRSEDTAVYYCTRHGLFYEGWFAYWGQGTLVTVSS VL: EIVLTQSPATLSLSPGERATLSCSVSSSISSSNLHWYQQKPGQAPRPLIYGTSNLASGIPARFSGSGSGTDYTLTISSLEPEDAAVYYCQQWSSYPYTFGQGTKLEIKR",0.16
18800,"hu-52VH-33/VL-11 (antibody, human IgG4 S228P, kappa, V domains shown, full-length humanized IgG4 antibody (not the L235E/D265A/R409K IgG4 mutant); also called hu-52 humanized antibody) VH: QVQLVQSGAEVKKPGSSVKVSCKASGFNIQNTYLHWVRQAPGQGLEWMGRIDPANDNIKYVPKFQGRVTITADTSTNTAYMELSSLRSEDTAVYYCTRHGLFYEGWFAYWGQGTLVTVSS VL: DIQLTQSPSSLSASVGDRVTITCSVSSSISSSNLHWYQQKPGKAPKPLIYGTSNLASGVPSRFSGSGSGTDYTLTISSLQPEDAATYYCQQWSSYPYTFGQGTKLEIKR",0.09
18900,"hu-52VH-13/VL-21 (antibody, human IgG4 S228P, kappa, V domains shown, full-length humanized antibody; also called hu-52 humanized antibody) VH: QVQLVQSGAEVKKPGASVKVSCKASGFNIQNTYLHWVRQAPGQGLEWMGRIDPANDNIKYVPKFQGRVTMTADTSTNTAYMELSSLRSEDTAVYYCTRHGLFYEGWFAYWGQGTLVTVSS VL: DIQLTQSPSTLSASVGDRVTITCSVSSSISSSNLHWYQQKPGKAPKPLIYGTSNLASGVPSRFSGSGSGTEYTLTISSLQPDDAATYYCQQWSSYPYTFGQGTKLEIKR",0.14
18100,"hu-52VH-23/VL-31 (antibody, human IgG4 S228P, kappa, V domains shown, full-length humanized antibody; also called hu-52 humanized antibody) VH: QVQLVQSGAEVKKPGASVKVSCKASGFNIQNTYLHWVRQAPGQGLEWMGRIDPANDNIKYVPKFQGRVTMTADTSINTAYMELSRLRSDDTAVYYCTRHGLFYEGWFAYWGQGTLVTVSS VL: EIVLTQSPATLSLSPGERATLSCSVSSSISSSNLHWYQQKPGQAPRPLIYGTSNLASGIPARFSGSGSGTDYTLTISSLEPEDAAVYYCQQWSSYPYTFGQGTKLEIKR",
18700,"hu-52VH-23/VL-11 (antibody, human IgG4 S228P, kappa, V domains shown, full-length humanized antibody; also called hu-52 humanized antibody) VH: QVQLVQSGAEVKKPGASVKVSCKASGFNIQNTYLHWVRQAPGQGLEWMGRIDPANDNIKYVPKFQGRVTMTADTSINTAYMELSRLRSDDTAVYYCTRHGLFYEGWFAYWGQGTLVTVSS VL: DIQLTQSPSSLSASVGDRVTITCSVSSSISSSNLHWYQQKPGKAPKPLIYGTSNLASGVPSRFSGSGSGTDYTLTISSLQPEDAATYYCQQWSSYPYTFGQGTKLEIKR",0.13
18000,"hu-52VH-23/VL-21 (antibody, human IgG4 S228P, kappa, V domains shown, full-length humanized antibody; also called hu-52 humanized antibody) VH: QVQLVQSGAEVKKPGASVKVSCKASGFNIQNTYLHWVRQAPGQGLEWMGRIDPANDNIKYVPKFQGRVTMTADTSINTAYMELSRLRSDDTAVYYCTRHGLFYEGWFAYWGQGTLVTVSS VL: DIQLTQSPSTLSASVGDRVTITCSVSSSISSSNLHWYQQKPGKAPKPLIYGTSNLASGVPSRFSGSGSGTEYTLTISSLQPDDAATYYCQQWSSYPYTFGQGTKLEIKR",0.12
18000,"hu-52VH-33/VL-21 (antibody, human IgG4 S228P, kappa, V domains shown, full-length humanized antibody; also called hu-52 humanized antibody) VH: QVQLVQSGAEVKKPGSSVKVSCKASGFNIQNTYLHWVRQAPGQGLEWMGRIDPANDNIKYVPKFQGRVTITADTSTNTAYMELSSLRSEDTAVYYCTRHGLFYEGWFAYWGQGTLVTVSS VL: DIQLTQSPSTLSASVGDRVTITCSVSSSISSSNLHWYQQKPGKAPKPLIYGTSNLASGVPSRFSGSGSGTEYTLTISSLQPDDAATYYCQQWSSYPYTFGQGTKLEIKR",
